We go through 15 molecules from patent publication US20210155689A1 (SHANGHAI PHARMAEXPLORER, published 2021).

For assay [1], the target named is T1, human LAG-3 (full length, on the cell surface) (human, UniProt P18627 23-525).
T1 construct: Full-length human LAG-3 expressed on cells; also called HEK293-hLAG-3; HEK293 cells transfected with LAG-3 gene
T1 sequence: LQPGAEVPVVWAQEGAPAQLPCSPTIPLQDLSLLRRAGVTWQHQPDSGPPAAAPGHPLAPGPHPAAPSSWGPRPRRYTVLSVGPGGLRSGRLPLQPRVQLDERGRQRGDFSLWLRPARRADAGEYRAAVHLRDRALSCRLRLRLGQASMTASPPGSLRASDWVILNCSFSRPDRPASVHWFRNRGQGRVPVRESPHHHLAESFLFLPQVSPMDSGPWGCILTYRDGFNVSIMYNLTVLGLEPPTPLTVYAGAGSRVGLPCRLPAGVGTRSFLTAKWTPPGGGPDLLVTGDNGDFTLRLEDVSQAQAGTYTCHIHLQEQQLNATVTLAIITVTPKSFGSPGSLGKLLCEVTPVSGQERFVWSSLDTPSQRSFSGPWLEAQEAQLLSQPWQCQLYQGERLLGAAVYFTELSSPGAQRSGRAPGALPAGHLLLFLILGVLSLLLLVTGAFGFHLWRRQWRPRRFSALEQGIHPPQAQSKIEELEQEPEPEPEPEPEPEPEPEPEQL
The assay can be described thus: FACS, HEK293-hLAG-3; 1.600 nM. The source says:
(§1) The pIRES plasmid with the monkey-derived full-length gene was transfected into the HEK293 cell line to construct a HEK293 stable cell line containing monkey LAG-3 (herein referred to as HEK293-cLAG-3 stable cell line). The HEK293-hLAG-3 stable cell line and HEK293-cLAG-3 stable cell line were expanded in a T-75 cell culture flask to a 90% confluence. The medium was aspirated, and the cells were washed with HBSS (Hanks' Balanced Salt Solution) 1-2 times, then treated with a enzyme-free cell dissociation fluid (Versene solution: Life technology) and the cells were collected. The cells were washed with HBSS buffer for 1-2 times. After counted, the cells were diluted with HBSS to 1-2×10⁶ cells per ml, added with 1% goat serum blocking solution, incubated on ice for 20-30 minutes, and then washed with HBSS for 2 times by centrifugation. The collected cells were suspended in the FACS buffer (HBSS+1% BSA) to 2×10⁶ cells/ml, added as 100 microliters per well to a 96-well FACS reaction plate, added with 100 microliters per well of the antibody sample to be tested, incubated on ice for 1-2 hours. The plate was washed twice with the FACS buffer by centrifugation, added with 100 microliters of fluorescent (Alexa 488)-labeled secondary antibodies per well, and incubated on ice for 0.5-1.0 hours. The plate was washed 2-3 times with FACS buffer by centrifugation, added with 100 μl fixative solution (4% Paraformaldehyde) per well to suspend the cells. 5-10 minutes later, it was washed 1-2 times with FACS buffer by centrifugation. The cells were suspended with 100 microliters of FACS buffer, FACS (FACSCalibur, BD) was used for detection and the results were analyzed.
(In general: Flow cytometry measures light scatter and fluorescence of single cells or particles in a stream.)

Assay [2] addresses T2, human LAG-3 on cells (HEK293-hLAG-3 stable cell line) (human, UniProt P18627 23-525).
T2 sequence: T1 sequence
The assay is described as follows: FACS, HEK293-hLAG-3, antibody 8.000 nM.
Text: as §1

Assay [3] deals with T3, hFc tagged monkey LAG-3 protein (cLAG-3-hFc protein) (monkey; human).
T3 construct: Made in HEK293 cells; also called monkey LAG-3 extracellular domain protein; not shown: human IgG Fc fragment (hFc) of the pCpC vector
T3 chain: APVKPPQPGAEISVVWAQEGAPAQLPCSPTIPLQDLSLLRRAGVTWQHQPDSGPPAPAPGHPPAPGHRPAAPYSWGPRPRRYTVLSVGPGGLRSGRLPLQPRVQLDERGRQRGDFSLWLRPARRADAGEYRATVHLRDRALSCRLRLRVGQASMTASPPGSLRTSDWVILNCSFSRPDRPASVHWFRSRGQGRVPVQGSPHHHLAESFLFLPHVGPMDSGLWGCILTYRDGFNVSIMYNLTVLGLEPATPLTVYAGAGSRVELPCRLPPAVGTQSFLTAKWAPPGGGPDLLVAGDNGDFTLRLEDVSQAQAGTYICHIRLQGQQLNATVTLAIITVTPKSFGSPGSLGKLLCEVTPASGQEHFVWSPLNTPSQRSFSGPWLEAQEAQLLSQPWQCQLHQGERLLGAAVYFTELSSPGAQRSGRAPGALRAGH
The assay is described as follows: ELISA, cLAG-3-hFc coated; 0.0001 nM. On the procedure: The plate was sealed with plastic film and incubated overnight at 4° C. The plate was washed 2 times with the plate washing solution (PBS+0.01% Tween20) on the next day, and added with the blocking solution (PBS+0.01% Tween20+1% BSA) and blocked at room temperature for 1-2 hours. The blocking solution was poured out, and the plate was added with 50-100 μl of the antibody sample to be tested to each well, incubated at 37° C. for 1-2 hours, and washed 2-3 times with a plate washing solution (PBS+0.01% Tween20). HRP (horseradish peroxidase) labeled secondary antibody was added, and the plate was incubated at 37° C. for 1-2 hours, and washed 2-3 times with a plate washing solution (PBS+0.01% Tween20). 100 μl of TMB substrate was added to each well. After incubated at room temperature for 15-30 minutes, the plate was added with 100 μl of stop solution (1.0N HCl) to each well.
(In general: ELISA stands for enzyme-linked immunosorbent assay.)

Substitutions are numbered along the chain they refer to.

B1: 405B8H3 (mouse antibody purified from hybridoma) (antibody, V domains shown)
VH: QVQLQQSGAELVRPGASVTLSCKASGYTFTDYEMHWVKQTPVHGLEWIGATDPETGNSAYNQKFKGKAIMTADKSSSTAYMELRSLTSEDSAVYYCISTGWNDWGQGTSLTVSS
VL: DIKMTQSPSSMYASLGERVTITCKASQDINSYLSWFQQKPGKSPKTLIYRADRLLDGVPSRFSGSGSGQDYSLTISSLEYGDMGIYYCLQYDEFPYTFGGGTKLEIK
notes: also called mAb103-405B8H3; 405B81-13
In assay [1], B1 had a Mean fluorescence intensity of 99.4 MFI.

B2: 105F1E10 mouse-human chimeric antibody (antibody, V domains shown)
VH: EVQLQQSGPELVKPGASVKMSCRASGYTFTDFKMHWMKQSHGKSLEWIGYIAPNNGGTAYNQKFRGKATLTVNESSNTAYMELRSLTSEDSAVYYCVDWDDVDYWGQGTTLTVSS
VL: B1 VL with P40S, D52N, L55V, G81E, D92V, Y96L, G100A, I106L
notes: also called mAb009-105F1E10
With B2, the Mean fluorescence intensity in assay [2] worked out at 99.4.

B3: 405B8H3 mouse-human chimeric antibody (antibody, V domains shown)
VH: B1 VH
VL: B1 VL
notes: also called mAb103-405B8H3
For B3, the Mean fluorescence intensity in assay [2] was 137.

B4: 405B8H3 (LAG-3 mouse-human chimeric antibody) (antibody, V domains shown)
VH: B1 VH
VL: B1 VL
notes: also called mouse-human chimeric antibody 405B8H3
In turn, B4 registered an OD450 in assay [3] of 0.15 OD450.

B5: 105F1E10 (LAG-3 mouse-human chimeric antibody) (antibody, V domains shown)
VH: B2 VH
VL: B1 VL with P40S, D52N, L55V, G81E, D92V, Y96L, G100A, I106L
B5 had an OD450 in assay [3] of 0.14 OD450.

B6: 105F1E10 (mouse antibody purified from hybridoma) (antibody, V domains shown)
VH: B2 VH
VL: B1 VL with P40S, D52N, L55V, G81E, D92V, Y96L, G100A, I106L
notes: also called mAb009-105F1E10
In assay [1], B6 registered a Mean fluorescence intensity of 86.2 MFI.

B7: 409B11E12 mouse-human chimeric antibody (antibody, V domains shown)
VH: B1 VH with P41T, G56S, N57Y, M70L, S98A
VL: B1 VL with I2L, D52N, G81E
notes: also called mAb104-409B11E12
In assay [2], B7 showed a Mean fluorescence intensity of 136.

B8: 409D4E10 (LAG-3 mouse-human chimeric antibody) (antibody, V domains shown)
VH: B1 VH with Y27N, G56D, S58T, M70L, A72T, S98T, T99S
VL: B1 VL with D52N, G81E, D92N
B8 returned an OD450 in assay [3] of 0.19 OD450.

B9: 409B11E12 (mouse antibody purified from hybridoma) (antibody, V domains shown)
VH: B1 VH with P41T, G56S, N57Y, M70L, S98A
VL: B1 VL with I2L, D52N, G81E
notes: also called mAb104-409B11E12
On to B9, for which the Mean fluorescence intensity in assay [1] was determined as 55.6 MFI.

B10: 409D4E10 mouse-human chimeric antibody (antibody, V domains shown)
VH: B1 VH with Y27N, G56D, S58T, M70L, A72T, S98T, T99S
VL: B1 VL with D52N, G81E, D92N
notes: also called mAb112-409D4E10
As to B10, the Mean fluorescence intensity in assay [2] is 129.

B11: 409D4E10 (mouse antibody purified from hybridoma) (antibody, V domains shown)
VH: B1 VH with Y27N, G56D, S58T, M70L, A72T, S98T, T99S
VL: B1 VL with D52N, G81E, D92N
notes: also called mAb112-409D4E10
With B11, in assay [1], the Mean fluorescence intensity is 48 MFI.

B12: 409B11E12 (LAG-3 mouse-human chimeric antibody) (antibody, V domains shown)
VH: B1 VH with P41T, G56S, N57Y, M70L, S98A
VL: B1 VL with I2L, D52N, G81E
Molecule B12 displayed an OD450 in assay [3] of 0.14 OD450.

B13: 556F6B8 mouse-human chimeric antibody (antibody, V domains shown)
VH: RVQLKQSGPGLVQPSQSLSITCTVSGFSLIKYGVHWVRQSPGEGLEWLGVIWRGGITDYNAAFMSRLSITKDNSKSQVFFKMNSLQADDTAIYYCAKWDGPLAMDYWGQGTSVTVSS
VL: DIVMTQSHKFLSTSVGDRVSITCKASQDVGTTVAWYQQKPGQSPKLLIYWASTRHTGVPDRFTGSGSGTDFTLTISNVQSEDLADYFCQQYSSYPYTFGGGTKLEIK
notes: also called mAb123-556F6B8; 556F8B8
Consider B13, for which the Mean fluorescence intensity in assay [2] stood at 93.5.

B14: 556F6B8 (mouse antibody purified from hybridoma) (antibody, V domains shown)
VH: B13 VH
VL: B13 VL
notes: also called mAb123-556F6B8
B14 gave a Mean fluorescence intensity in assay [1] of 43.5 MFI.

B15: 556F6B8 (LAG-3 mouse-human chimeric antibody) (antibody, V domains shown)
VH: B13 VH
VL: B13 VL
notes: also called 556F8B8
In assay [3], B15 displayed an OD450 of 0.18 OD450.
